According to article PMC12831459, “Identification and characterization of a TGF-β-independent SMAD4–NFATc1–STAT3 regulatory axis” (Journal of Molecular Cell Biology, 2025):

Target: T1, GST-SMAD4 (full-length, WT) (human, UniProt Q13485 1-552)
T1 construct: SMAD4, human, Human ORFeome V8.1 clone; Gateway mammalian GST expression vector (Li et al., 2017); details in the Supplementary material; also called GST-tagged SMAD4 FL; GST-tagged SMAD4 WT; source: HEK293T, transfected, in lysate
T1 sequence (looked up): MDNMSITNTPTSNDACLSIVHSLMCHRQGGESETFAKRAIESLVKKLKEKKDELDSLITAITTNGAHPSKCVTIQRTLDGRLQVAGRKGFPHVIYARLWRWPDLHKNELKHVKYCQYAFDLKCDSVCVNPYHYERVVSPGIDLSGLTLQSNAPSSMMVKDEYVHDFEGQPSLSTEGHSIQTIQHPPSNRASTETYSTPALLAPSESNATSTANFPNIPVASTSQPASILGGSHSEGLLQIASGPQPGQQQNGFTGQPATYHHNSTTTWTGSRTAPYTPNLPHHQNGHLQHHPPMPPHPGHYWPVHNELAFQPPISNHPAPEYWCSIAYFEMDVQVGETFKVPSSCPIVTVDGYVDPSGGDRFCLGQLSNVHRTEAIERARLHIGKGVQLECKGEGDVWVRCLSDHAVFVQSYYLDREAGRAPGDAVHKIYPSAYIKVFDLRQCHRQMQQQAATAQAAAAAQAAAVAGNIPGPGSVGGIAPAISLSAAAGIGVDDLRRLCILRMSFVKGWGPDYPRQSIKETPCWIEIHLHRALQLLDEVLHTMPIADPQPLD
Assay: FRET or BRET; TR-FRET of single pairs: GST-SMAD4 (WT, domain truncations, truncation mutants) with VF-tagged partners; signal as fold change over empty vector controls
Conditions: partners not purified

B1: Venus-Flag-tagged NFATc1 (VF-NFATc1), full-length WT (natural protein, human, UniProt O95644-2 1-716, looked up)
chain: MPSTSFPVPSKFPLGPAAAVFGRGETLGPAPRAGGTMKSAEEEHYGYASSNVSPALPLPTAHSTLPAPCHNLQTSTPGIIPPADHPSGYGAALDGGPAGYFLSSGHTRPDGAPALESPRIEITSCLGLYHNNNQFFHDVEVEDVLPSSKRSPSTATLSLPSLEAYRDPSCLSPASSLSSRSCNSEASSYESNYSYPYASPQTSPWQSPCVSPKTTDPEEGFPRGLGACTLLGSPRHSPSTSPRASVTEESWLGARSSRPASPCNKRKYSLNGRQPPYSPHHSPTPSPHGSPRVSVTDDSWLGNTTQYTSSAIVAAINALTTDSSLDLGDGVPVKSRKTTLEQPPSVALKVEPVGEDLGSPPPPADFAPEDYSSFQHIRKGGFCDQYLAVPQHPYQWAKPKPLSPTSYMSPTLPALDWQLPSHSGPYELRIEVQPKSHHRAHYETEGSRGAVKASAGGHPIVQLHGYLENEPLMLQLFIGTADDRLLRPHAFYQVHRITGKTVSTTSHEAILSNTKVLEIPLLPENSMRAVIDCAGILKLRNSDIELRKGETDIGRKNTRVRLVFRVHVPQPSGRTLSLQVASNPIECSQRSAQELPLVEKQSTDSYPVVGGKKMVLSGHNFLQDSKVIFVEKAPDGHHVWEMEAKTDRDLCKPNSLVVEIPPFRNQRITSPVHVSFYVCNGKRKRSQYQRFTYLPANGNAIFLTVSREHERVGCFF
notes: NFATc1, human, Human ORFeome V8.1 clone; also called VF-tagged NFATc1 FL; VF-tagged NFATc1 WT; source: HEK293T, transfected, in lysate; in live cells for the BRET screen
B1 was tested, and the “TR-FRET PPI signal, fold-of-change (FOC) over negative controls” value was > 3 fold.
